Assay results as given in patent US20260063625A1, “COMPOSITIONS FOR AND METHODS OF DETECTING FOOD TOXINS” (priority 2022, published 2026).

Tests used:
[1] = format: binding; details: 1.1 μM Sxph, 0-20 μM STX
[2] = Fluorescence polarization (FP) binding to fluorescein labeled STX; details: […]G = RT ln (KdSxph mutant/KdSxph); T = 298K
Procedure: […]; Measurements were performed at 25° C. on a Synergy H1 microplate reader (BioTek) using the polarization filter setting (excitation 485 nm, emission 528 nm). […]. The dissociation constants were calculated using GraphPad Prism by fitting fluorescence millipolarization (mP=P·10^−3, where P is polarization) as a function of Sxph concentration using the equation: P={(Pbound−Pfree) [Sxph]/(Kd+[Sxph])}+Pfree, where P is the polarization measured at a given Sxph concentration, Pfree is the […], and Pbound is the maximum polarization of Sxph bound by F-STX (Rossi and Taylor, Hansen et al.).

[3] = Isothermal titration calorimetry (ITC) of STX into Sxph; format: binding; details: 25° C.
Procedure: ITC measurements were performed at 25° C. using a MicroCal PEAQ-ITC calorimeter (Malvern Panalytical). […]. This STX stock was diluted with the SEC buffer to prepare 100 μM or 300 μM STX solutions having a final buffer composition of 135 mM NaCl, 9 mM HEPES, pH 7.4. […]. The calorimetric experiment settings were: reference power, 5 μcal/s; spacing between injections, 150 s; stir speed 750 rpm; and feedback mode, high. Data were analyzed using MicroCal PEAQ-ITC Analysis Software (Malvern Panalytical) using a single binding site model. The heat of dilution from titrations of 100 μM STX in 135 mM NaCl, 9 mM HEPES, pH 7.4 into 135 mM NaCl, 9 mM HEPES, pH 7.4 was subtracted from each experiment to correct the baseline.

Molecule | DTm ([…]Tm=TmSxph+20 μM toxin−TmSxph), STX [1] | […]G (kcal mol^−1) relative to wild-type RcSxph [2] [kcal/mol] | […]G [3] [kcal/mol] | […]H (kcal mol^−1), binding enthalpy [3] [kcal/mol] | […]S (cal mol^−1 K^−1) [3] [cal mol^−1 K^−1]
D785N: RcSxph mutant D785N (protein) MAPTFQTALFFTIISLSFAAPNAKQVRWCAISDLEQKKCNDLVGSCNVPDITLVCVLRSSTEDCMTAIKDGQADAMFLDSGEVYEASKDPYNLKPIIAEPYSSNRDLQKCLKERQQALAKKMIGHYIPQCDEKGNYQPQQCHGSTGHCWCVNAMGEKISGTNTPPGQTRATCERHELPKCLKERQVALGGDEKVLGRFVPQCDEKGNYEPQQFHGSTGYSWCVNAIGEEIAGTKTPPGKIPATCQKHDLVTTCHYAVAMVKKSSAFQFNQLKGKRSCHSGVSKTDGWKALVTVLVEKKLLSWDGPAKESIQRAMSKFFSVSCIPGATQTNLCKQCKGEEGKNCKNSHDEPYYGNYGAFRCLKEDMGDVAFLRSTALSDEHSEVYELLCPDNTRKPLNKYKECNLGTVPAGTVVTRKISDKTEDINNFLMEAQKRQCKLFSSAHGKDLMFDDSTLQLALLSSEVDAFLYLGVKLFHAMKALTGDAHLPSKNKVRWCTINKLEKMKCDDWSAVSGGAIACTEASCPKGCVKQILKGEADAVKLEVQYMYEALMCGLLPAVEEYHNKDDFGPCKTPGSPYTDFGTLRAVALVKKSNKDINWNNIKGKKSCHTGVGDIAGWVIPVSLIRRQNDNSDIDSFFGESCAPGSDTKSNLCKLCIGDPKNSAANTKCSLSDKEAYYGNQGAFRCLVEKGDVAFVPHTVVFENTDGKNPAVWAKNLKSEDFELLCLDGSRAPVSNYKSCKLSGIPPPAIVTREESISDVVRIVANQQSLYGRKGFEKDMFQLFSSNKGNNLLFNDNTQCLITFNRQPKDIMEDYFGKPYYTTVYGASRSAMSSELISACTIKHC | DTm increases relative to wild-type | -0.30 |  |  | 
Y558A: RcSxph mutant, alanine for tyrosine at position 558 (protein) MAPTFQTALFFTIISLSFAAPNAKQVRWCAISDLEQKKCNDLVGSCNVPDITLVCVLRSSTEDCMTAIKDGQADAMFLDSGEVYEASKDPYNLKPIIAEPYSSNRDLQKCLKERQQALAKKMIGHYIPQCDEKGNYQPQQCHGSTGHCWCVNAMGEKISGTNTPPGQTRATCERHELPKCLKERQVALGGDEKVLGRFVPQCDEKGNYEPQQFHGSTGYSWCVNAIGEEIAGTKTPPGKIPATCQKHDLVTTCHYAVAMVKKSSAFQFNQLKGKRSCHSGVSKTDGWKALVTVLVEKKLLSWDGPAKESIQRAMSKFFSVSCIPGATQTNLCKQCKGEEGKNCKNSHDEPYYGNYGAFRCLKEDMGDVAFLRSTALSDEHSEVYELLCPDNTRKPLNKYKECNLGTVPAGTVVTRKISDKTEDINNFLMEAQKRQCKLFSSAHGKDLMFDDSTLQLALLSSEVDAFLYLGVKLFHAMKALTGDAHLPSKNKVRWCTINKLEKMKCDDWSAVSGGAIACTEASCPKGCVKQILKGEADAVKLEVQYMYEALMCGLLPAVEEYHNKDDFGPCKTPGSPATDFGTLRAVALVKKSNKDINWNNIKGKKSCHTGVGDIAGWVIPVSLIRRQNDNSDIDSFFGESCAPGSDTKSNLCKLCIGDPKNSAANTKCSLSDKEAYYGNQGAFRCLVEKGDVAFVPHTVVFENTDGKNPAVWAKNLKSEDFELLCLDGSRAPVSNYKSCKLSGIPPPAIVTREESISDVVRIVANQQSLYGRKGFEKDMFQLFSSNKGNNLLFNDNTQCLITFDRQPKDIMEDYFGKPYYTTVYGASRSAMSSELISACTIKHC |  | -1.00 | -12.2 ± 0.2 | -15.3 ± 0.0 | −11.1 ± 1.1
D794E: RcSxph mutant D794E (protein) MAPTFQTALFFTIISLSFAAPNAKQVRWCAISDLEQKKCNDLVGSCNVPDITLVCVLRSSTEDCMTAIKDGQADAMFLDSGEVYEASKDPYNLKPIIAEPYSSNRDLQKCLKERQQALAKKMIGHYIPQCDEKGNYQPQQCHGSTGHCWCVNAMGEKISGTNTPPGQTRATCERHELPKCLKERQVALGGDEKVLGRFVPQCDEKGNYEPQQFHGSTGYSWCVNAIGEEIAGTKTPPGKIPATCQKHDLVTTCHYAVAMVKKSSAFQFNQLKGKRSCHSGVSKTDGWKALVTVLVEKKLLSWDGPAKESIQRAMSKFFSVSCIPGATQTNLCKQCKGEEGKNCKNSHDEPYYGNYGAFRCLKEDMGDVAFLRSTALSDEHSEVYELLCPDNTRKPLNKYKECNLGTVPAGTVVTRKISDKTEDINNFLMEAQKRQCKLFSSAHGKDLMFDDSTLQLALLSSEVDAFLYLGVKLFHAMKALTGDAHLPSKNKVRWCTINKLEKMKCDDWSAVSGGAIACTEASCPKGCVKQILKGEADAVKLEVQYMYEALMCGLLPAVEEYHNKDDFGPCKTPGSPYTDFGTLRAVALVKKSNKDINWNNIKGKKSCHTGVGDIAGWVIPVSLIRRQNDNSDIDSFFGESCAPGSDTKSNLCKLCIGDPKNSAANTKCSLSDKEAYYGNQGAFRCLVEKGDVAFVPHTVVFENTDGKNPAVWAKNLKSEDFELLCLDGSRAPVSNYKSCKLSGIPPPAIVTREESISDVVRIVANQQSLYGRKGFEKDMFQLFSSNKGNNLLFNDNTQCLITFDRQPKDIMEEYFGKPYYTTVYGASRSAMSSELISACTIKHC |  | 2.94 | -8.9 ± 0.1 | -11.8 ± 0.0 | −8.9 ± 0.1
E540D: RcSxph mutant E540D (protein) MAPTFQTALFFTIISLSFAAPNAKQVRWCAISDLEQKKCNDLVGSCNVPDITLVCVLRSSTEDCMTAIKDGQADAMFLDSGEVYEASKDPYNLKPIIAEPYSSNRDLQKCLKERQQALAKKMIGHYIPQCDEKGNYQPQQCHGSTGHCWCVNAMGEKISGTNTPPGQTRATCERHELPKCLKERQVALGGDEKVLGRFVPQCDEKGNYEPQQFHGSTGYSWCVNAIGEEIAGTKTPPGKIPATCQKHDLVTTCHYAVAMVKKSSAFQFNQLKGKRSCHSGVSKTDGWKALVTVLVEKKLLSWDGPAKESIQRAMSKFFSVSCIPGATQTNLCKQCKGEEGKNCKNSHDEPYYGNYGAFRCLKEDMGDVAFLRSTALSDEHSEVYELLCPDNTRKPLNKYKECNLGTVPAGTVVTRKISDKTEDINNFLMEAQKRQCKLFSSAHGKDLMFDDSTLQLALLSSEVDAFLYLGVKLFHAMKALTGDAHLPSKNKVRWCTINKLEKMKCDDWSAVSGGAIACTEASCPKGCVKQILKGEADAVKLEVQYMYEALMCGLLPAVDEYHNKDDFGPCKTPGSPYTDFGTLRAVALVKKSNKDINWNNIKGKKSCHTGVGDIAGWVIPVSLIRRQNDNSDIDSFFGESCAPGSDTKSNLCKLCIGDPKNSAANTKCSLSDKEAYYGNQGAFRCLVEKGDVAFVPHTVVFENTDGKNPAVWAKNLKSEDFELLCLDGSRAPVSNYKSCKLSGIPPPAIVTREESISDVVRIVANQQSLYGRKGFEKDMFQLFSSNKGNNLLFNDNTQCLITFDRQPKDIMEDYFGKPYYTTVYGASRSAMSSELISACTIKHC |  | 1.54 | -9.8 ± 0.1 | -16.3 ± 1.7 | −21.9 ± 5.7
F561A: RcSxph mutant F561A (protein) MAPTFQTALFFTIISLSFAAPNAKQVRWCAISDLEQKKCNDLVGSCNVPDITLVCVLRSSTEDCMTAIKDGQADAMFLDSGEVYEASKDPYNLKPIIAEPYSSNRDLQKCLKERQQALAKKMIGHYIPQCDEKGNYQPQQCHGSTGHCWCVNAMGEKISGTNTPPGQTRATCERHELPKCLKERQVALGGDEKVLGRFVPQCDEKGNYEPQQFHGSTGYSWCVNAIGEEIAGTKTPPGKIPATCQKHDLVTTCHYAVAMVKKSSAFQFNQLKGKRSCHSGVSKTDGWKALVTVLVEKKLLSWDGPAKESIQRAMSKFFSVSCIPGATQTNLCKQCKGEEGKNCKNSHDEPYYGNYGAFRCLKEDMGDVAFLRSTALSDEHSEVYELLCPDNTRKPLNKYKECNLGTVPAGTVVTRKISDKTEDINNFLMEAQKRQCKLFSSAHGKDLMFDDSTLQLALLSSEVDAFLYLGVKLFHAMKALTGDAHLPSKNKVRWCTINKLEKMKCDDWSAVSGGAIACTEASCPKGCVKQILKGEADAVKLEVQYMYEALMCGLLPAVEEYHNKDDFGPCKTPGSPYTDAGTLRAVALVKKSNKDINWNNIKGKKSCHTGVGDIAGWVIPVSLIRRQNDNSDIDSFFGESCAPGSDTKSNLCKLCIGDPKNSAANTKCSLSDKEAYYGNQGAFRCLVEKGDVAFVPHTVVFENTDGKNPAVWAKNLKSEDFELLCLDGSRAPVSNYKSCKLSGIPPPAIVTREESISDVVRIVANQQSLYGRKGFEKDMFQLFSSNKGNNLLFNDNTQCLITFDRQPKDIMEDYFGKPYYTTVYGASRSAMSSELISACTIKHC |  | 0.48 | -10.8 ± 0.1 | -12.7 ± 0.2 | −6.6 ± 0.9
